Reference: the RNAGym collection of RNA variant scans (doi:10.7554/elife.80360)

B1: CPEB3 Ribozyme (parent)
chain: GGGGGCCACAGCAGAAGCGUUCACGUCGCGGCCCCUGUCAGAUUCUGGUGAAUCUGCGAAUUCUGCUGU

Variants of: B1
Assay: self-cleavage, relative activity (ratio to wild type); higher = more cleavage; co-transcriptional
GGGGGCCACAGCAGAAGCGGUCAGGUCGCGGCCCCUGUCAGAUUCUGGUGAAUCUGCGAAUUCUGCUGU [U20G C24G] showed a self-cleavage of 0.146.
With GGGGGCCACAGCAGAAGCGGUCAUGUCGCGGCCCCUGUCAGAUUCUGGUGAAUCUGCGAAUUCUGCUGU [U20G C24U] the self-cleavage was 0.144.
GGGGGCCACAGCAGAAGCGGUCACGUUGCGGCCCCUGUCAGAUUCUGGUGAAUCUGCGAAUUCUGCUGU [U20G C27U] showed a self-cleavage of 0.0848.
With GGGGGCCACAGCAGAAGCGGUCACGUCGAGGCCCCUGUCAGAUUCUGGUGAAUCUGCGAAUUCUGCUGU [U20G C29A] the self-cleavage was 0.198.
Work on GGGGGCCACAGCAGAAGCGGUCACGUCGGGGCCCCUGUCAGAUUCUGGUGAAUCUGCGAAUUCUGCUGU [U20G C29G] yielded a self-cleavage of 0.128.
GGGGGCCACAGCAGAAGCGGUCACGUCGCGGACCCUGUCAGAUUCUGGUGAAUCUGCGAAUUCUGCUGU [U20G C32A] showed a self-cleavage of 0.218.
Work on GGGGGCCACAGCAGAAGCGGUCACGUCGCGGUCCCUGUCAGAUUCUGGUGAAUCUGCGAAUUCUGCUGU [U20G C32U] yielded a self-cleavage of 0.157.
Work on GGGGGCCACAGCAGAAGCGGUCACGUCGCGGCACCUGUCAGAUUCUGGUGAAUCUGCGAAUUCUGCUGU [U20G C33A] yielded a self-cleavage of 0.135.
Variant GGGGGCCACAGCAGAAGCGGUCACGUCGCGGCGCCUGUCAGAUUCUGGUGAAUCUGCGAAUUCUGCUGU [U20G C33G] has a self-cleavage of 0.261.
GGGGGCCACAGCAGAAGCGGUCACGUCGCGGCCGCUGUCAGAUUCUGGUGAAUCUGCGAAUUCUGCUGU [U20G C34G] gave a self-cleavage of 0.28.
In the case of GGGGGCCACAGCAGAAGCGGUCACGUCGCGGCCUCUGUCAGAUUCUGGUGAAUCUGCGAAUUCUGCUGU [U20G C34U], the self-cleavage is reported as 0.268.
GGGGGCCACAGCAGAAGCGGUCACGUCGCGGCCCAUGUCAGAUUCUGGUGAAUCUGCGAAUUCUGCUGU [U20G C35A] showed a self-cleavage of 0.218.
In the case of GGGGGCCACAGCAGAAGCGGUCACGUCGCGGCCCGUGUCAGAUUCUGGUGAAUCUGCGAAUUCUGCUGU [U20G C35G], the self-cleavage is reported as 0.184.
With GGGGGCCACAGCAGAAGCGGUCACGUCGCGGCCCUUGUCAGAUUCUGGUGAAUCUGCGAAUUCUGCUGU [U20G C35U] the self-cleavage was 0.171.
With GGGGGCCACAGCAGAAGCGGUCACGUCGCGGCCCCUGUAAGAUUCUGGUGAAUCUGCGAAUUCUGCUGU [U20G C39A] the self-cleavage was 0.169.
Variant GGGGGCCACAGCAGAAGCGGUCACGUCGCGGCCCCUGUGAGAUUCUGGUGAAUCUGCGAAUUCUGCUGU [U20G C39G] has a self-cleavage of 0.23.
For GGGGGCCACAGCAGAAGCGGUCACGUCGCGGCCCCUGUUAGAUUCUGGUGAAUCUGCGAAUUCUGCUGU [U20G C39U], the self-cleavage was 0.0993.
Variant GGGGGCCACAGCAGAAGCGGUCACGUCGCGGCCCCUGUCAGAUUAUGGUGAAUCUGCGAAUUCUGCUGU [U20G C45A] has a self-cleavage of 0.221.
Work on GGGGGCCACAGCAGAAGCGGUCACGUCGCGGCCCCUGUCAGAUUGUGGUGAAUCUGCGAAUUCUGCUGU [U20G C45G] yielded a self-cleavage of 0.11.
Work on GGGGGCCACAGCAGAAGCGGUCACGUCGCGGCCCCUGUCAGAUUUUGGUGAAUCUGCGAAUUCUGCUGU [U20G C45U] yielded a self-cleavage of 0.202.
With GGGGGCCACAGCAGAAGCGGUCACGUCGCGGCCCCUGUCAGAUUCUGGUGAAUAUGCGAAUUCUGCUGU [U20G C54A] the self-cleavage was 0.203.
In the case of GGGGGCCACAGCAGAAGCGGUCACGUCGCGGCCCCUGUCAGAUUCUGGUGAAUGUGCGAAUUCUGCUGU [U20G C54G], the self-cleavage is reported as 0.118.
Work on GGGGGCCACAGCAGAAGCGGUCACGUCGCGGCCCCUGUCAGAUUCUGGUGAAUUUGCGAAUUCUGCUGU [U20G C54U] yielded a self-cleavage of 0.196.
In the case of GGGGGCCACAGCAGAAGCGGUCACGUCGCGGCCCCUGUCAGAUUCUGGUGAAUCUGUGAAUUCUGCUGU [U20G C57U], the self-cleavage is reported as 0.143.
Work on GGGGGCCACAGCAGAAGCGGUCACGUCGCGGCCCCUGUCAGAUUCUGGUGAAUCUGCGAAUUGUGCUGU [U20G C63G] yielded a self-cleavage of 0.21.
With GGGGGCCACAGCAGAAGCGGUCACGUCGCGGCCCCUGUCAGAUUCUGGUGAAUCUGCGAAUUUUGCUGU [U20G C63U] the self-cleavage was 0.246.
For GGGGGCCACAGCAGAAGCGGUCACGUCGCGGCCCCUGUCAGAUUCUGGUGAAUCUGCGAAUUCUGUUGU [U20G C66U], the self-cleavage was 0.216.
In the case of GGGGGCCACAGCAGAAGCGGUCACAUCGCGGCCCCUGUCAGAUUCUGGUGAAUCUGCGAAUUCUGCUGU [U20G G25A], the self-cleavage is reported as 0.129.
Variant GGGGGCCACAGCAGAAGCGGUCACUUCGCGGCCCCUGUCAGAUUCUGGUGAAUCUGCGAAUUCUGCUGU [U20G G25U] has a self-cleavage of 0.185.
GGGGGCCACAGCAGAAGCGGUCACGUCACGGCCCCUGUCAGAUUCUGGUGAAUCUGCGAAUUCUGCUGU [U20G G28A] gave a self-cleavage of 0.186.
GGGGGCCACAGCAGAAGCGGUCACGUCCCGGCCCCUGUCAGAUUCUGGUGAAUCUGCGAAUUCUGCUGU [U20G G28C] showed a self-cleavage of 0.145.
Work on GGGGGCCACAGCAGAAGCGGUCACGUCGCAGCCCCUGUCAGAUUCUGGUGAAUCUGCGAAUUCUGCUGU [U20G G30A] yielded a self-cleavage of 0.126.
With GGGGGCCACAGCAGAAGCGGUCACGUCGCGACCCCUGUCAGAUUCUGGUGAAUCUGCGAAUUCUGCUGU [U20G G31A] the self-cleavage was 0.155.
With GGGGGCCACAGCAGAAGCGGUCACGUCGCGCCCCCUGUCAGAUUCUGGUGAAUCUGCGAAUUCUGCUGU [U20G G31C] the self-cleavage was 0.134.
With GGGGGCCACAGCAGAAGCGGUCACGUCGCGGCCCCUAUCAGAUUCUGGUGAAUCUGCGAAUUCUGCUGU [U20G G37A] the self-cleavage was 0.173.
For GGGGGCCACAGCAGAAGCGGUCACGUCGCGGCCCCUCUCAGAUUCUGGUGAAUCUGCGAAUUCUGCUGU [U20G G37C], the self-cleavage was 0.151.
Variant GGGGGCCACAGCAGAAGCGGUCACGUCGCGGCCCCUGUCAAAUUCUGGUGAAUCUGCGAAUUCUGCUGU [U20G G41A] has a self-cleavage of 0.127.
GGGGGCCACAGCAGAAGCGGUCACGUCGCGGCCCCUGUCACAUUCUGGUGAAUCUGCGAAUUCUGCUGU [U20G G41C] gave a self-cleavage of 0.0984.
For GGGGGCCACAGCAGAAGCGGUCACGUCGCGGCCCCUGUCAUAUUCUGGUGAAUCUGCGAAUUCUGCUGU [U20G G41U], the self-cleavage was 0.194.
